From patent publication US20260139023A1 (Dana-Farber, published 2026) come the findings set out here.

One may read the Kd as the concentration at which binding is half-saturated. Usually IC50 stands for the concentration at which inhibition is half-maximal. For orientation: Ki means a dissociation constant, usually derived from enzyme kinetics or from competition with a known ligand.

In assay [1] the target is T1, recombinant human integrin αVβ5 ectodomain (human, UniProt P06756 32-991; P18084 24-717, glycosylated with heterogeneous glycans).
T1 construct: range 32-991;range 24-717; Used in the solution assays (anisotropy, MST, HDX-MS, FRET); An introduced Cys and the rest of the HRV3C site would remain after cleavage; also called αVβ5 alone; αVβ5/Mn2+
Put plainly: fluorescence anisotropy, A488-irisin-bac, αVβ5 varied 0-6000 nM, 1 mM MnCl2. Background: Polarisation of emitted light reports the rotation of a fluorescent probe.

Assay [2] deals with T1, recombinant human integrin αVβ5 …. Put plainly: fluorescence anisotropy, A488-irisin-bac, varied αVβ5, 1 mM MnCl2 (FIG. 7D); direct binding, A488-irisin-bac (FIG. 7D).
For assay [3] the target is unchanged. Put plainly: fluorescence anisotropy competition, 50 nM A488-irisin-WT (bacterial) and 1000 nM αVβ5, varied unlabeled irisin-WT (FIG. 7F); competition, wild type bacterial dimer, run beside R75E (FIG. 7F).
For assay [4] the target is unchanged. As to the kind of experiment: fluorescence anisotropy, compared with irisin-mam on αVβ5.
For assay [5] the target is unchanged. As to the kind of experiment: fluorescence anisotropy competition: 50 nM A488-irisin-WT probe and 1000 nM αVβ5, unlabeled irisin-WT varied 0-4000 nM.
The target is the same in assay [6]. As to the kind of experiment: fluorescence anisotropy competition, 50 nM A488-irisin-bac and 1000 nM αVβ5, varied unlabeled irisin-bac (FIG. 7E); competition, unlabeled irisin-bac vs A488-irisin-bac (FIG. 7E).
Assay [7] has the same target. As to the kind of experiment: fluorescence anisotropy competition: 50 nM A488-irisin-bac probe and 1000 nM αVβ5, unlabeled irisin-bac varied 0-4000 nM.
For assay [8] the target is unchanged. As to the kind of experiment: fluorescence anisotropy competition, 50 nM A488-irisin-WT (bacterial) and 1000 nM αVβ5, varied unlabeled irisin-R75E (FIG. 7F); competition, R75E monomer mutant (FIG. 7F).
Assay [9] shares this target. Put plainly: fluorescence anisotropy competition: 50 nM A488-irisin-WT probe and 1000 nM αVβ5, unlabeled irisin-R75E varied 0-4000 nM.
The target in assay [10] is T2, αVβ5/Hsp90α complex (reconstituted from recombinant human αVβ5 ectodomain and recombinant human Hsp90α) (human, UniProt P06756 32-991; P18084 24-717; P07900 2-732, glycosylated).
T2 construct: range 32-991;range 24-717;mature; also called integrin/Hsp90α complex
Put plainly: fluorescence anisotropy competition, 50 nM A488-irisin-His and 125 nM αVβ5/Hsp90α, varied unlabeled untagged irisin (FIG. 1H). From the text:
(§1) The domain boundaries are as follows: αV, 32-991; β5, 24-717.

Assay [11] concerns the target T2, αVβ5/Hsp90α complex (reconstituted from …). As to the kind of experiment: fluorescence anisotropy competition: unlabeled WT irisin (0 to 6000 nM) against the labelled WT irisin probe on the αVβ5/Hsp90 complex; black curve.
The target is the same in assay [12]. Put plainly: fluorescence anisotropy competition: 50 nM A488-irisin-His probe and 125 nM αVβ5 (as αVβ5/Hsp90α complex), unlabeled untagged irisin varied 0-6000 nM.
Excerpt: as §1

For assay [13] the target is unchanged. As to the kind of experiment: fluorescence anisotropy competition: unlabeled N45Q (0 to 6000 nM) against the labelled WT irisin probe on the αVβ5/Hsp90 complex; grey curve.
Assay [14] concerns the target T1, recombinant human integrin αVβ5 …. As to the kind of experiment: fluorescence anisotropy, direct binding: labelled irisin N45Q with varied aVß5 concentration (0 to 1000 nM); grey curve and grey label.
The target is the same in assay [15]. As to the kind of experiment: fluorescence anisotropy, 50 nM A488-irisin-His, αVβ5 in 1 mM MnCl2 (FIG. 4D).
For assay [16] the target is unchanged. As to the kind of experiment: fluorescence anisotropy binding assay with labelled irisin, αVβ5 varied 0-1000 nM as the positive curve beside the Hsp90α curves; buffer and activation state of αVβ5 not given in the legend.
The target in assay [17] is T2, αVβ5/Hsp90α complex (reconstituted from …). As to the kind of experiment: fluorescence anisotropy, 50 nM A488-irisin-His, αVβ5/Hsp90α complex in 1 mM MgCl2 and 1 mM CaCl2 (FIG. 4D).
In assay [18] the target is T1, recombinant human integrin αVβ5 …. Put plainly: fluorescence anisotropy competition, 50 nM A488-irisin-bac and 1000 nM αVβ5, varied unlabeled irisin-mam (irisin-His) (FIG. 7E); competition, unlabeled irisin-mam vs A488-irisin-bac (FIG. 7E).
The target is the same in assay [19]. As to the kind of experiment: fluorescence anisotropy competition: 50 nM A488-irisin-bac probe and 1000 nM αVβ5, unlabeled irisin-mam (irisin-His) varied 0-4000 nM.
The target in assay [20] is T2, αVβ5/Hsp90α complex (reconstituted from …). Put plainly: summary sentence of Example 2: αVβ5 receptor activated by eHsp90α; αVβ5 activated by eHsp90α; rounded summary value.
Assay [21] deals with T3, clasped and tagged αVβ5 (recombinant human αVβ5 ectodomain with C-terminal coiled-coil clasp and affinity … (human, UniProt P06756 32-991; P18084 24-717, glycosylated).
T3 construct: range 32-991;range 24-717; Used in BLI (streptavidin sensors) and TALON pull-downs; also called clasped αVβ5; immobilized clasped αVβ5; not shown: introduced Cys, HRV3C site, acidic α-helical coiled-coil and twin Strep-II tag; introduced Cys, HRV3C site, basic α-helical coiled-coil and 8xHis tag
Put plainly: BLI (Octet RED384), clasped and tagged αVβ5 on streptavidin sensors, 1 mM MgCl2 and 1 mM CaCl2; affinity-purified αVβ5 preparation that still held co-purified Hsp90α (FIG. 1B). The method, then:
as §1
Biolayer Inferometry (BLI) measurements were conducted by Octet RED384. […] Data analysis HT software was used for the fitting and Kd calculations.
In general terms: BLI is a label-free optical method that tracks binding on a fibre tip over time.

The target of assay [22] is T2, αVβ5/Hsp90α complex (reconstituted from …). Put plainly: fluorescence anisotropy, 50 nM A488-irisin-His, varied αVβ5/Hsp90α complex, 1 mM MgCl2 and 1 mM CaCl2 (FIG. 1G).
Excerpt: as §1

Assay [23] concerns the target T4, recombinant human Hsp90α (purified from E. coli, untagged) (human, UniProt P07900 2-732).
T4 construct: mature; Tested as Apo and as ATP-, AMP-PNP- and ADP-charged forms; also called eHsp90α; Hsp90α-Apo
Put plainly: fluorescence anisotropy binding assay with labelled irisin, Hsp90α without nucleotide or charged with ATP, AMP-PNP or ADP varied 0-2500 nM.

Assay [24] deals with T2, αVβ5/Hsp90α complex (reconstituted from …). Put plainly: fluorescence anisotropy competition, 50 nM A488-irisin-His and 125 nM αVβ5/Hsp90α, varied unlabeled irisin-His (FIG. 1H).
Excerpt: as §1

Assay [25] has as its target T1, recombinant human integrin αVβ5 …. As to the kind of experiment: fluorescence anisotropy, direct binding: labelled irisin WT with varied aVß5 concentration (0 to 1000 nM); black curve and black label.
For assay [26], the target named is T2, αVβ5/Hsp90α complex (reconstituted from …). As to the kind of experiment: fluorescence anisotropy competition: 50 nM A488-irisin-His probe and 125 nM αVβ5 (as αVβ5/Hsp90α complex), unlabeled irisin-His varied 0-6000 nM.
Excerpt: as §1

B1: irisin-bac (non-glycosylated irisin dimer produced in bacteria) (ligand, UniProt Q8K4Z2 61-171, looked up)
chain: SPSAPVNVTVRHLKANSAVVSWDVLEDEVVIGFAISQQKKDVRMLRFIQEVNTTTRSCALWDLEEDTEYIVHVQAISIQGQSPASEPVLFKTPREAEKMASKNKDEVTMKE
modifications: Alexa Fluor 488 label where used as probe
notes: also called A488-irisin-bac
Regarding B1, the Kd in [1] turned out to be 317 nM; in [2], 256 nM; in [3], 299 nM; in assay [6] it was 294 nM. Further, the “fold weaker affinity than irisin-mam” value in assay [4] is about 8 fold. In addition, the IC50 in assay [5] was 1270 nM; in [7], 1190 nM.

B2: irisin-R75E (non-glycosylated irisin monomer mutant R75E from bacteria) (ligand, UniProt Q8K4Z2-1 30-140, looked up)
chain: SPSAPVNVTVRHLKANSAVVSWDVLEDEVVIGFAISQQKKDVRMLEFIQEVNTTTRSCALWDLEEDTEYIVHVQAISIQGQSPASEPVLFKTPREAEKMASKNKDEVTMKE
notes: also called monomeric mutant
With B2, the Kd in assay [8] stood at 42 nM. Besides, the IC50 in [9] was 198 nM.

B3: untagged irisin (wild-type, glycosylated recombinant irisin from mammalian cells) (ligand)
chain: DSPSAPVNVTVRHLKANSAVVSWDVLEDEVVIGFAISQQKKDVRMLRFIQEVNTTTRSCALWDLEEDTEYIVHVQAISIQGQSPASEPVLFKTPREAEKMASKNKDEVTMKE
modifications: N-glycosylated at N36, N45 and N81 (numbers as printed)
notes: also called unlabeled and untagged irisin; WT irisin
For B3, in [10], the Kd came to 50 nM. For the same molecule, in assay [11], the IC50 was 440 nM and the Ki came out at 56 nM. For the same molecule, in assay [12], the IC50 worked out at 477 nM.

B4: irisin N45Q mutant (irisin glycosylation mutant, recombinant, from mammalian Expi293 cells) (ligand)
chain: DSPSAPVNVTVRHLKAQSAVVSWDVLEDEVVIGFAISQQKKDVRMLRFIQEVNTTTRSCALWDLEEDTEYIVHVQAISIQGQSPASEPVLFKTPREAEKMASKNKDEVTMKE
modifications: glycosylated at positions 36 and 81; position 45 is Q, not N-glycosylated
With B4, in [13], the IC50 worked out at 35 nM and the Ki came to 9 nM. For the same molecule, the Kd in [14] came to 32 nM.

B5: irisin-His (wild-type, glycosylated recombinant irisin, His tagged, from mammalian cells) (ligand)
chain: DSPSAPVNVTVRHLKANSAVVSWDVLEDEVVIGFAISQQKKDVRMLRFIQEVNTTTRSCALWDLEEDTEYIVHVQAISIQGQSPASEPVLFKTPREAEKMASKNKDEVTMKEHHHHHHHHHHRDPLEVLFQ
modifications: N-glycosylated at N36, N45 and N81 (numbers as printed); Alexa Fluor 488, 555 or 647 label where the assay says so
notes: Monomer by SEC-MALS; also called irisin-mam; A488-irisin-His
On to B5, for which the Kd was 28 nM in assay [15]; 43 nM in assay [16]; 37 nM in [17]; 35 nM in assay [18]; about 30 nM in [20]; 212 nM in assay [21]. Moreover, the Kd in assay [22] came to 31 nM; in assay [24] it was 52 nM; in assay [25], 6 nM. Also, the IC50 came out at 165 nM in assay [19] and 499 nM in assay [26]. Further, the binding result in assay [23] was “no binding (tested: 2500 nM)”.
